Experimental data published in patent publication US7041806.

How the values were obtained:
[1] = biological target: UNC5H-2 (rat homologue of UNC-5) (rat) (UniProt O08722); experiment: equilibrium binding, curves fitted to the Hill equation
[2] = biological target: UNC5H-1 (rat homologue of UNC-5) (rat) (UniProt O08721); experiment: as above
Sequence of UniProt O08721 (O08721 26-898 limits assumed, form in doubt): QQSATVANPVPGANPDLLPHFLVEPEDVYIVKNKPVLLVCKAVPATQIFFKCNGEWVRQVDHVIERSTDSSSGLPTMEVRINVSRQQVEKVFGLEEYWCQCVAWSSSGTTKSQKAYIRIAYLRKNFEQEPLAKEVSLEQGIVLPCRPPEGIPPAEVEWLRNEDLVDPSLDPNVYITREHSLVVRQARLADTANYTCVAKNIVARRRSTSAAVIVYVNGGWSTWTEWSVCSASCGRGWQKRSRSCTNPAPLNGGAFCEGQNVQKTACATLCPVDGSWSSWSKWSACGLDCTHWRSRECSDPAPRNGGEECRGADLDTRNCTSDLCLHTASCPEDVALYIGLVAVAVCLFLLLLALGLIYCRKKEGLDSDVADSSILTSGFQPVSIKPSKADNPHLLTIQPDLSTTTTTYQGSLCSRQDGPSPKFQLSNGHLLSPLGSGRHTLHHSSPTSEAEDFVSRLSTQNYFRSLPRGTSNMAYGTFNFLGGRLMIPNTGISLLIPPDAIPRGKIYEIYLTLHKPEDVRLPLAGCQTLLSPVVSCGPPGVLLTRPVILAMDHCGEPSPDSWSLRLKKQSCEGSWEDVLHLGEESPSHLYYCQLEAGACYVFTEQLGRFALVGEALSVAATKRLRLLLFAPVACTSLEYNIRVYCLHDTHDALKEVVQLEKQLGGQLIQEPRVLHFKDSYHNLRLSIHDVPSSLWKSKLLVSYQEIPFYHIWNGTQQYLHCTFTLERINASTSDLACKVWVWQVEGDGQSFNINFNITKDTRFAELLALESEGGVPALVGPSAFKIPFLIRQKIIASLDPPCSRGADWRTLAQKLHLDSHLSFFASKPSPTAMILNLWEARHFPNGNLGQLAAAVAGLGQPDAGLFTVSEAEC

Work on netrin(VIoV)-Fc (Fc fusion) yielded a Kd [1] of 3.4 nM and a Kd [2] of 19 nM.
